# From patent US20260184794A1 (MOMENTA PHARMACEUTICALS, published 2026)
# Where a chain is given by its changes, count along the chain named.
# T1: human α11 expressed on CHO-K1 cells (human, UniProt Q9UKX5 23-1188)
# T1 construct: whole, on cells; also called CHO-hu α11; CHO-α11β1
# T1 sequence (Q9UKX5 whole entry, looked up): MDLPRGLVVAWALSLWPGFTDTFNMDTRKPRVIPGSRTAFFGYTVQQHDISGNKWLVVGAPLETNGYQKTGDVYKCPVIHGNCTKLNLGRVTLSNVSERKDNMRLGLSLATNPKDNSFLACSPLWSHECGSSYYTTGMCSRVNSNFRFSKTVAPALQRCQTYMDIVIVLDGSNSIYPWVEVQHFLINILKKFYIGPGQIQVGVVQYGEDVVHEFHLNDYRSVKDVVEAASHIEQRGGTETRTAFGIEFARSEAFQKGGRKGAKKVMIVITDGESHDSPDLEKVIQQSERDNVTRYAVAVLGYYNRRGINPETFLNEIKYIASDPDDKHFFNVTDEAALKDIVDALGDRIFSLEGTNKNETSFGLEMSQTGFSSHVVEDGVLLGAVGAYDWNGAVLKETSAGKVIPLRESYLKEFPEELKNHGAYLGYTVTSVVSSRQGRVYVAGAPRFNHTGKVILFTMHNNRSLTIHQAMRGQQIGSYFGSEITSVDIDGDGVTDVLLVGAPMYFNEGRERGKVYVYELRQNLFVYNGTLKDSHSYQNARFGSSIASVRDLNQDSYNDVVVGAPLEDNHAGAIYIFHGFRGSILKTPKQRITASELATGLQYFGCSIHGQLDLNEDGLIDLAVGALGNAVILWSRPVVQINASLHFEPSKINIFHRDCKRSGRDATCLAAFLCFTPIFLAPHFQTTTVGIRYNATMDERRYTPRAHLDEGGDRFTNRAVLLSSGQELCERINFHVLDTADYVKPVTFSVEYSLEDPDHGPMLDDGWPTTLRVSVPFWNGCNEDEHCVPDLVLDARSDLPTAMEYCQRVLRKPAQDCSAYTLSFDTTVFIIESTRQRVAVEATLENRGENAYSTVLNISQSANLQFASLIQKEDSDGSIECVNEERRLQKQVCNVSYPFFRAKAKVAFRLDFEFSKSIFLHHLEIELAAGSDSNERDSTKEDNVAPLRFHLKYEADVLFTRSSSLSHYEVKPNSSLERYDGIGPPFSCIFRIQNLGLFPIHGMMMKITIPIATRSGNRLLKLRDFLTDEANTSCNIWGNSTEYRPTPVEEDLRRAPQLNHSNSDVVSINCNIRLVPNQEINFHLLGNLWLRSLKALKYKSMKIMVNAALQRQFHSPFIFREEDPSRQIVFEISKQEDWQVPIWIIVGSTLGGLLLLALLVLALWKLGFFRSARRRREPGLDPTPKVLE
# B1: 1994-01-C7 variant 54 (antibody, V domains shown)
# VH: QVQLVQSGAEVKKPGASVKVSCKASGYTFTSYGISWVRQAPGQGLEWMGWISAYNANTNYAQKLQGRVTMTTDTSTSTAYMELRSLRSDDTAAYYCARVTGITGTTIGPWGQGTMVTVSS
# VL: DIQMTQSPSSLSASVGDRVTITCRASQSISSYLNWYQQKPGKAPKLLIYDASSLESGVPSRFSGSGSGTEFTLTISSLQPDDFAVYYCQQYNNWPQTFGQGTKVEIK
# B2: 1994-01-C7 variant 58 (antibody, V domains shown)
# VH: B1 VH with T58V
# VL: B1 VL
# B3: 1994-01-C7 variant 60 (antibody, V domains shown)
# VH: B1 VH with A56S
# VL: B1 VL
# B4: 1994-01-C7 (antibody, V domains shown)
# VH: B1 VH with A56G, G108D
# VL: B1 VL
# notes: Fully human, from phage display (scFv converted to IgG); also called 1994-01-C7 (#9); 1994-01-C07
# B5: 79E3E3 (antibody, V domains shown)
# VH: QIQLVQSGPEVKKPGESVKISCKASGYTFTDYAMNWVKQAPGNGLKWMGWINTQTGKPTYADDFKQRFVFSLETSARTTYLQINNLNIEDTATYFCTRLGTGNTKGFAYWGQGTLVTVSS
# VL: DILINQSPASLTVSAGERVTMSCKSSQSLLYSENNQDYLAWYQQKPGQFPKLLIYGASNRHTGVPDRFTGSGSGTDFTLTISSVQAEDLADYYCEQTYRYPFTFGSGTKLEIK
# notes: Rat hybridoma antibody; also called Wild Type
# B6: 16E10 (antibody, V domains shown)
# VH: QSLEESGGDLVKPGASLTLTCRVSGFSFSSSYYMCWVRQAPGKGLEWIACIGTTRGSTYYATWAKGRFTISKISSTTVTLQMTSLTDADTATYFCARDATGYRINTIGLYFNLWGPGTLVTVSS
# VL: ELTQTPSSVEAAVGGTPTIKCQASQTIYSYLSWYQQKPGQPPKLLIYEASKLASGVPSRFSGSGSGTDYTLTISDLECADAATYYCQSYHGTASTEYNTFGGGTEVVVK
# Target: T2, α11β1 on human pulmonary myofibroblasts (human, UniProt Q9UKX5 23-1188; P05556 21-798)
# T2 construct: whole, on cells; The cells are not transfected; also called HPF/MF
# Assay: flow cytometry on human pulmonary myofibroblasts (title: Myofibroblast Binding); MFI against Log [µg/ml]
# Procedure: (§1) Human Pulmonary Fibroblasts (ScienCell) were cultured in complete Fibroblast Growth Medium (ScienCell) until 80% confluent in T-150 flasks. Cells were washed and harvested using Accutase. Cells were seeded into T-150 flasks at 7,500 cells/cm² in complete FGF and cultured for 72 hours. Cells were then washed and starved in serum reduced medium for 24 hours. After starvation, cells were treated with TGFβ1 (R&D Systems) for 72 hours. Cells were harvested using Accutase and seeded in 96-well conical bottom plates. Cells were blocked with Heat Inactived Fetal Bovine Serum (Gibco) for 30 minutes at 4° C. Cells were then incubated with anti-al I antibodies at the doses described in each figure for 30 minutes at 4° C. A human anti-al I antibody (Creative BioLabs) was included as a positive control as well as the appropriate IgG isotype negative controls. Cells were washed twice and incubated with PE conjugated secondary antibodies specific to the IgG class of the anti-α11 antibodies being tested for 30 minutes at 4° C. Cells were washed twice and fixed in 1% PF A for 30 minutes. Cells were acquired on a FACS Verse […]. Data were analyzed by gating on single cells and determining the geometric Mean Fluorescence Intensity (gMFI) in the PE channel for each sample.
# Target sequence in this assay (P05556 21-798, chain 2 of 2, one chain of several): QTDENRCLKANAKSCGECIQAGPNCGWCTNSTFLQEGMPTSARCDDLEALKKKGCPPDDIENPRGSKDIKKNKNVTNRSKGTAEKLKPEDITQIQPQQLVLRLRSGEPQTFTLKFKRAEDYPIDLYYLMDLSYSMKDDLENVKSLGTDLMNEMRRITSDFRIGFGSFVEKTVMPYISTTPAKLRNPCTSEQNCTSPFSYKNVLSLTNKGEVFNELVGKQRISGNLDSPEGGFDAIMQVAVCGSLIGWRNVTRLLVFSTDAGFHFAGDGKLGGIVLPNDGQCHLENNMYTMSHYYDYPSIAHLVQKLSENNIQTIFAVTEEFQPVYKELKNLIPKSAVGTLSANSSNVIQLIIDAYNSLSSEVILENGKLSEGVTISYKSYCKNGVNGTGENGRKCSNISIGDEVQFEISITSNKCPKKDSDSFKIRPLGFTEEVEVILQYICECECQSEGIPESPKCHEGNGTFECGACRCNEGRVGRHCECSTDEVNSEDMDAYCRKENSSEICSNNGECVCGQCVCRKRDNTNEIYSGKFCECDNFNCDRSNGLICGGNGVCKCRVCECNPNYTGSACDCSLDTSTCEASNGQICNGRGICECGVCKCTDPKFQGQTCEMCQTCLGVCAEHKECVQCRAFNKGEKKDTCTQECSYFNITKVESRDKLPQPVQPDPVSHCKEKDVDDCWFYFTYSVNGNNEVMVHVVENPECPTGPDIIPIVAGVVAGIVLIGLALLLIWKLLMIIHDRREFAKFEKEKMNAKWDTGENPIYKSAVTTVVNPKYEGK
row,Binder,EC50 (read off the curve)
1,B1,~0.4 µg/mL
2,B2,~0.4 µg/mL
3,B3,~0.6 µg/mL
4,B4,~0.5 µg/mL

# Target: T2, α11β1 on human pulmonary myofibroblasts
# Assay: flow cytometry on TGFβ1-treated human pulmonary fibroblasts (myofibroblasts)
# Procedure: as §1
# Target sequence in this assay (P05556 21-798, one chain of several): as the sequence (P05556 21-798, chain 2 of 2, one chain of several) above
row,Binder,EC50
1,B5,3.35 nM
2,B4,3.5 nM
3,B6,0.35 nM

# Target: T1, human α11 expressed on CHO-K1 cells
# Assay: flow cytometry on CHO cells expressing human α11 (CHO-α11β1 binding)
# Procedure: (§2) 200,000 cells (wild-type CHO-K1 cells or CHO-K1 cells expressing human α11) were incubated with each antibody at desired concentrations in FACS buffer for 30 min at 4° C. Then, the cells were washed with FACS buffer and incubated with secondary antibody at 1:100 dilution for 30 minutes at 4° C. Cells were then washed and fixed with 1% PF A in PBS for 20 minutes at room temperature; washed again and read on a cytometer in FACS buffer.
row,Binder,EC50
1,B5,3.4 nM
2,B4,3.5 nM
3,B6,0.3 nM

# Target: T1, human α11 expressed on CHO-K1 cells
# Assay: cell-based or functional assay
row,Binder,"IC50 (read off the curve), inhibition of cell adhesion to type I collagen"
1,B1,~0.6 µg/mL
2,B2,~0.5 µg/mL
3,B3,~0.6 µg/mL
4,B4,~0.5 µg/mL

# Target: T3, recombinant human α11β1 (human, UniProt Q9UKX5 23-1141; P05556 21-728, limits assumed)
# T3 construct: HIS-tagged heterodimer captured by anti-HIS antibody in SPR; also called HIS-tagged human α11β1; soluble human α11β1
# T3 sequence (P05556 21-728 limits assumed, chain 2 of 2, one chain of several): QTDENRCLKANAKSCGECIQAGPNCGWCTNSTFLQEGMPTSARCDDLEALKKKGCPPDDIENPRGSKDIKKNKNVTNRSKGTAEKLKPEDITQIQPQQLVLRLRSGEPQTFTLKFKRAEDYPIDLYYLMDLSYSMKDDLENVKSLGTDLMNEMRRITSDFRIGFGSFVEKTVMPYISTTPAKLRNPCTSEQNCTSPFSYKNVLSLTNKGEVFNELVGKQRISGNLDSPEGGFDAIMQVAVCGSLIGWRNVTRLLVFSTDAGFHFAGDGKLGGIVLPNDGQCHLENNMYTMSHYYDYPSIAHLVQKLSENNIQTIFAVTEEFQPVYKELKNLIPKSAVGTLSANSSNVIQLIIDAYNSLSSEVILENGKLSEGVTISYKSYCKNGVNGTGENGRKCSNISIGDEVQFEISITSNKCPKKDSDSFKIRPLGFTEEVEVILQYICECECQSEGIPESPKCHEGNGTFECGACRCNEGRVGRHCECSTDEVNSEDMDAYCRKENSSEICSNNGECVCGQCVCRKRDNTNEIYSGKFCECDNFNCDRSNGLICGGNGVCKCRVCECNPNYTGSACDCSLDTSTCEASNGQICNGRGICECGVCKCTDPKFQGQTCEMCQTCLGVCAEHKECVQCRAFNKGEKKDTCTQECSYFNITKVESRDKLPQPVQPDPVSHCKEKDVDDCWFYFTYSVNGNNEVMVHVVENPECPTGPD
# Assay: SPR (Biacore T200), HIS-tagged human α11β1 captured by anti-HIS, antibody injected, single cycle kinetics, 1:1 model
# Procedure: The affinity of antibodies for human α11β1 was measured by surface plasm on resonance assay (SPR). Affinity was measured at pH 7.6 and 25° C. with a Biacore T200 instrument. Anti-HIS antibody was immobilized on the SPR sensor surface using EDC/NHS covalent attachment. HIS-tagged human α11β1 was captured on the sensor surface and a single cycle kinetics assay was used. Increasing concentrations of test antibody were injected in series over the sensor-bound α11β1. Dissociation was monitored for 1000 seconds. A sensor surface with only anti-HIS antibody and a series of blank injections were used to double-reference subtract the data. A 1:1 Langmuir model was fit to the data to estimate the kinetic association and dissociation constants. The affinity (equilibrium dissociation constant) of the interaction was calculated by dividing the kinetic dissociation constant by the kinetic association constant. Between injection cycles α11β1 and bound antibody were removed with an injection of 10 mM glycine at pH 1.5.
row,Binder,Kd
1,B5,1.3 nM
2,B4,0.24 nM
3,B6,0.048 nM

# Target: T1, human α11 expressed on CHO-K1 cells
# Assay: cell-based or functional assay
# Remark: another data set of the same source
row,Binder,CHO-hu α11 adhesion inhibition (IC50)
1,B5,9.4 nM
2,B4,3.3 nM
3,B6,0.39 nM

# Target: T1, human α11 expressed on CHO-K1 cells
# Assay: flow cytometry on CHO-K1 cells expressing human α11 (title: CHO-hu α11 Binding); MFI against Log [µg/ml]
# Procedure: as §2
row,Binder,EC50 (read off the curve)
1,B3,~0.8 µg/mL
2,B4,~0.4 µg/mL
